Data: the supplement of paper PMC10567573

B1: LOXL2 (parent)
chain: YVEVKEGKTWKQICDKHWTAKNSR
B2: COX4I1 (parent)
chain: FDKEWVAKQTKRMLDMKVNPIQGL

Variants of: B1
Assay: protein stability index of a GFP-peptide fusion (GPS, HEK-293T) (PSI 1-6); higher = more stable
Conditions: c terminus: a fixed tail appended
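Further: lentivirally expressed fusions sorted by FACS into six bins by GFP to DsRed ratio, PSI derived from sequencing read proportions per bin multiplied by bin number.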

Protein stability index: each site, then its substitutions
A20: R 2.71, S 2.73, V 2.11, T 2.03, Y 2.27, Q 2.54
S23: M 1.97, N 1.71, R 2.09, E 2.17, P 1.94, Y 2.64, L 2.42, I 2.82, A 2.97, C 2.73, F 1.19, G 1.83, H 2, V 2.15, T 2.33, K 2.88, D 2.41
N22: G 2.13, H 2.99, Y 2.23, Q 1.82, L 1.78, K 3.05, I 2.8, E 2.25, S 1.92, M 2.35, P 1.89, A 3.24, R 1.8, F 2.29, V 2.79, D 2.42, C 1.97, T 2.54, W 3.39
K21: E 3.16, M 2.13, I 1.68, G 2.14, S 1.99, F 3.06, P 2.67, W 1.96, A 2.3, Y 2.14, L 1.95, D 2.34, T 2.5, H 1.85, N 2.15, R 3.06, V 2.03
R24: N 2.48, E 2.33, K 2.76, S 3.24, G 1.53, V 2.2, P 1.69, D 1.91, I 1.74, C 2.72, A 2.42, Y 3.45, H 3.07, T 3.49, L 2.46, M 2.09, W 1.79, Q 2.33, F 2.94

Variants of: B2
Assay: as above
Conditions: c terminus: a fixed tail appended

Protein stability index of substitutions, site by site:
R12: D 1.88, N 1.36, V 2.27, I 1.96, S 3.04, F 2.17, L 3.17, T 1.54
E4: T 2.34, V 2.42, N 1.69, C 1.62, R 1.84, G 1.43, L 1.88, K 1.82, S 1.43, H 2.35, I 1.47, Q 1.53
V18: P 2.13, A 1.79, K 1.19, E 1.95, W 1.99, C 1.88, R 2.19, I 1.65, M 1.86
W5: C 3.78, Y 3.22, I 3.44, N 3.86, D 4.22, Q 3.85, F 2.8, R 3.98, T 2.87, H 2.84
P20: G 2.17, F 1.71, Y 2.05, M 2.08, Q 1.54, I 1.56, H 1.78, V 1.73
D15: T 1.84, F 1.84, Q 1.6, I 1.76, S 1.58, Y 2.36, M 3.02, W 2.07, A 1.62
V6: R 2.1, S 1.96, L 2.37, M 1.93, D 2.78, Q 2.83, H 2.06, A 3.39, E 3.33, K 2.28, P 1.86, W 2.67, T 1.93, G 2.31
I21: Q 1.78, E 1.66, P 1.63, V 1.89, M 2.63, A 1.54, G 1.75, D 1.93, Y 1.75, C 2.6, N 2.21, F 1.46, S 1.32, W 2.17, L 1.64
F1: L 3.57, V 2.77, P 3.44, H 3.13, M 3.23, K 3.57, R 2.42, N 3.79, T 3.71
K3: R 1.66, A 2.17, G 1.91, Y 2.13, Q 2.85, V 1.68, T 2.1, L 2.06, D 2.57
N19: A 1.75, F 1.77, K 1.92, M 1.97, R 1.71, E 1.9
D2: I 2.45, G 1.55, P 2.51, T 1.35, K 1.62, L 1.09, V 1.26
M13: H 1.43, Y 1.63, T 1.82, E 2.06, R 1.64, N 2.23, W 1.56, A 1.13, L 2.36, S 2.4, K 1.88, Q 2.99, D 1.59
Q22: A 1.93, E 1.71, V 2.58, I 2.79, L 2.08, C 1.29, W 1.68, T 1.91, D 2.31, G 1.63, S 2.23
A7: D 2.32, C 1.27, N 1.65, T 1.76, G 2.28, R 2.45, H 1.74, W 1.77, E 1.77, M 1.81, V 1.18, L 1.56
T10: C 1.7, V 1.49, I 2.82, E 2.21, W 1.82, G 2.67, P 2, A 1.41, Y 1.6, S 1.08, R 2.35
K8: R 2.42, D 2.29, Q 1.18, C 2.68, E 2.35, G 1.87, T 1.48, M 1.88, V 1.84, N 1.38, P 2.33, F 1.99
K11: R 1.92, D 1.54, A 1.84, F 1.97, M 1.9, W 1.52, N 1.54, H 1.7, G 1.62, L 1.61, T 1.92, C 2.77
M16: S 1.88, N 1.67, C 1.65, H 1.42, D 1.97, R 1.72, E 1.52, F 1.62, Y 1.75, V 1.71
L14: A 2.35, I 2.1, H 1.65, R 1.82, F 2.88, T 1.79, V 1.41, M 1.47, E 1.43, K 2.12, C 1.38, Q 1.23, D 2.06, P 1.65
K17: Y 2.14, E 1.71, F 2.16, W 2.4, I 2.3, H 1.44, S 1.55, P 2.24, D 2.49
L24: G 2.86, K 1.03, E 3.09, I 2.3, N 2.28, C 2.19, F 1.72, M 1.74, V 1.91, T 1.35
Q9: H 1.77, F 1.54, G 2.65, M 2.54, K 2.62, V 1.46, R 1.87, Y 2.14, N 1.42, D 2.2, T 2.87, A 3.55, L 2.08, C 3.23
G23: F 2.36, C 3.51, K 2.02, Q 2.02, S 1.7, R 1.48, N 1.8, H 1.4, V 1.59, M 1.76, Y 1.92, I 1.81
